{"source": "patent US6329500", "key": {"[1]": {"biological_target": "transforming growth factor-β2 (TGF-β2)", "assay": "0.1 nM ^125 I-TGF-β2 in α2 M-MA-coated microtiter wells, 1 h"}, "[2]": {"biological_target": "transforming growth factor-β1 (TGF-β1)", "assay": "0.1 nM ^125 I-TGF-β1 in α2 M-MA-coated microtiter wells, 1 h"}, "[3]": {"biological_target": "transforming growth factor-β1 (TGF-β1)", "assay": "solution-phase competitor of ^125 I-TGF-β1 binding to immobilized α2 M-MA"}, "[4]": {"biological_target": "GST-α2 M peptide-fusion protein FP3 (human) (UniProt P01023)", "assay": "ligand blot; ^125 I-TGF-β1 on PVDF-immobilized FP3 with 0.2 µM unlabeled TGF-β1"}, "[5]": {"biological_target": "methylamine-modified human α2 -macroglobulin (α2 M-MA) (human) (UniProt P01023)", "assay": "^125 I-TGF-β1 in α2 M-MA-coated wells with 0.2 µM unlabeled TGF-β"}, "[6]": {"biological_target": "GST-α2 M peptide-fusion protein FP3 (human) (UniProt P01023)", "assay": "ligand blot; ^125 I-TGF-β2 on PVDF-immobilized FP3 with 0.2 µM unlabeled TGF-β2"}, "[7]": {"biological_target": "methylamine-modified human α2 -macroglobulin (α2 M-MA) (human) (UniProt P01023)", "assay": "^125 I-TGF-β2 in α2 M-MA-coated wells with 0.2 µM unlabeled TGF-β"}}}
{"substance": "methylamine-modified human α2 -macroglobulin (α2 M-MA) (from UniProt P01023)", "values": [{"measurement": "amount of ^125 I-TGF-β bound", "setting": "[1]", "result": 2.6, "unit": "fmol"}, {"measurement": "amount of ^125 I-TGF-β bound", "setting": "[2]", "result": 3.4, "unit": "fmol"}]}
{"substance": "monomeric human α2 -macroglobulin (from UniProt P01023)", "values": [{"measurement": "IC50", "setting": "[3]", "result": 360, "unit": "nM"}]}
{"substance": "transforming growth factor-β1 (TGF-β1) (ligand)", "values": [{"measurement": "percent inhibition of binding", "setting": "[4]", "result": 72, "unit": "%"}, {"measurement": "percent decrease of binding", "setting": "[5]", "result": "> 75", "unit": "%"}]}
{"substance": "transforming growth factor-β2 (TGF-β2) (ligand)", "values": [{"measurement": "percent inhibition of binding", "setting": "[6]", "result": 90, "unit": "%"}, {"measurement": "percent decrease of binding", "setting": "[7]", "result": "> 75", "unit": "%"}]}
